Common to all, as to assay: cell-based or functional assay
In test [1] the target is human toll-like receptor 4 (TLR4) (human, UniProt O00206 24-839).
For test [2], the target named is human toll-like receptor 2 (TLR2) (human, UniProt O60603 21-784).
The target of test [3] is T1, human MD-2 accessory protein (human, UniProt Q9Y6Y9 19-160).
T1 chain: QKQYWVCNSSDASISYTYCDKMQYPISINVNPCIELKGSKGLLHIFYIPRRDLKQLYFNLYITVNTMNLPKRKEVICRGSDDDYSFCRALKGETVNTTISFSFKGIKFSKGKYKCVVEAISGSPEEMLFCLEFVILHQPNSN

human toll-like receptor 4 (TLR4), sequence (O00206 24-839 limits assumed): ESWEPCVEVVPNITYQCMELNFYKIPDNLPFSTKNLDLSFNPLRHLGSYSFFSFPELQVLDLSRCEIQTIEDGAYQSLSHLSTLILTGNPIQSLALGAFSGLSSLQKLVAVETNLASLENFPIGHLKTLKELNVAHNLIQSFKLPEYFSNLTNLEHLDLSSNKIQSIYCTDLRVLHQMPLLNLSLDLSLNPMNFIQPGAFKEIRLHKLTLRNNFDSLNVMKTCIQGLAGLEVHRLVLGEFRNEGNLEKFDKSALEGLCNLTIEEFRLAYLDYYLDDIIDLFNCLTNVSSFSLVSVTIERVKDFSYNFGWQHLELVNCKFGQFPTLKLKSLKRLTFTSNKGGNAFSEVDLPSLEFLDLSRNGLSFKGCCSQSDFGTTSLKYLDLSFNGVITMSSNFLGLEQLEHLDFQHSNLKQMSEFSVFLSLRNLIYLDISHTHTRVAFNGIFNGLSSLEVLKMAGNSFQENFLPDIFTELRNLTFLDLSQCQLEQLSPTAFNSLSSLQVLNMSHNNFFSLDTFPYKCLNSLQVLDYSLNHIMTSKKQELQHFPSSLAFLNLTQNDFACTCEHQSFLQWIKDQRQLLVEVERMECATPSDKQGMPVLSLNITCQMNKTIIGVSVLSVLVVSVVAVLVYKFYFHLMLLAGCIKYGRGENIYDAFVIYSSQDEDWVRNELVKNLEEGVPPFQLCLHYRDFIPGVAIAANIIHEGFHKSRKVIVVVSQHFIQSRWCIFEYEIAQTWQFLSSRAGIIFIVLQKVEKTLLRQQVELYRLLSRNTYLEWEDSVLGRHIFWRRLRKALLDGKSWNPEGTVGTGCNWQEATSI
human toll-like receptor 2 (TLR2), sequence (O60603 21-784): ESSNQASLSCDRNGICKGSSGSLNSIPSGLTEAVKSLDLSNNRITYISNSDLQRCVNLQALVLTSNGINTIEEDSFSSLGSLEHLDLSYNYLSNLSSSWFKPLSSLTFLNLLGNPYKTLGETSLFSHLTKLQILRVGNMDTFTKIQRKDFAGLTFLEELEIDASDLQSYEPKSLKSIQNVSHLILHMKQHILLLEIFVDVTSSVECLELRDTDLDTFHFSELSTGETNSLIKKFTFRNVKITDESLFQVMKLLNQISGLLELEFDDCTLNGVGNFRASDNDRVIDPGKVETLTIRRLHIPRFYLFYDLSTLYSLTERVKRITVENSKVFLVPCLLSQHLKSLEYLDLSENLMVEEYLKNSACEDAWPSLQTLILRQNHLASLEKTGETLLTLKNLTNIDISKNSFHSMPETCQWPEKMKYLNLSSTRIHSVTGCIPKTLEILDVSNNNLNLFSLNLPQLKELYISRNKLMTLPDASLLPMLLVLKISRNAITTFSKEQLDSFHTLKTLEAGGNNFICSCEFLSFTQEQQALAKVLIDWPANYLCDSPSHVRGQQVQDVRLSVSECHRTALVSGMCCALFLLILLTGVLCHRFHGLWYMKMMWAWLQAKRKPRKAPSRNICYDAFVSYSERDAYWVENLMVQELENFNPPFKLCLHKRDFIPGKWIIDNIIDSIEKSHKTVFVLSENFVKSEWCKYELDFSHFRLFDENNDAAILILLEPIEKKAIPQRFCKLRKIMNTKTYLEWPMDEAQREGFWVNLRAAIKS

B1: α-human TLR4 MAb 15C1 (murine 15C1 monoclonal antibody) (antibody, mouse IgG1, V domains shown)
VH: DVQLQESGPDLIQPSQSLSLTCTVTGYSITGGYSWHWIRQFPGNKLEWMGYIHYSGYTDFNPSLKTRISITRDTSKNQFFLQLNSVTTEDTATYYCARKDPSDGFPYWGQGTLVTVSA
VL: DIVMTQSPATLSVTPGDRVSLSCRASQSISDHLHWYQQKSHESPRLLIKYASHAISGIPSRFSGSGSGTDFTLSIKSVEPEDIGVYYCQNGHSFPLTFGAGTKLELK
In the case of B1, the “IL-6 production induced by pseudomonas LPS in human whole blood” value (“IL-6 production induced” for short) in test [1] was approximately 50%.

B2: α-human TLR2 MAb T2.5 (antibody, V domains shown)
VH: QVQLQQSGPELVNPGASVKLSCKASGFTFTTYGINWVKQGPGQGLEWIGWIYPRDGSTNFNENFKDKAALTVDTSSSTAYMELHSLTSEDSAVYFCARLTGGTFLDWWGQGTTLTVSS
VL: DIVLTQSPASLAVSLGQRATISCRASESVEYYGTSLMQWYQQKPGQPPKLLIFGASNVESGVPVRFSGSGSGTDFSLNIHPVEEDDIVMYFCQQSRKLPWTFGGGTKLEIKR
For B2, the “IL-6 production induced” value in test [2] is approximately 50%.

B3: α-human MD-2 MAb 18H10 (murine 18H10 monoclonal antibody) (antibody, mouse IgG2b, V domains shown)
VH: QVQLQQSGADLVRPGALVKLSCTASGFNIKDSYIHWVKKRPEWGLEWIGWTDPENVNSIYDPRFQGKASITADTSSNTAFLQLTSLTSEDTAVYYCARGYNGVYYAMDYWGQGTSVTVSS
VL: QIVLTQSPSIMSASLGEEITLTCSASSSVIYMHWYQQKSGTSPKLLIYRTYNLASGVPSRFSGSGSGTFYSLTISSVEAEDAADYYCHQWSSFPYTFGGGTKLEIKR
Take B3: the “IL-6 production induced” value in test [3] was approximately 50%.

The record behind these values is patent US20060165686A1 (NOVIMMUNE S A, published 2006).
